Source: the supplement of paper PMC10567573

B1: NFE2L1 (parent)
chain: TLDGYGIHPKSIDLDNYFTARRLL
B2: TRAF3IP2 (parent)
chain: KEHVPTWLQNTHVYSWPKNKKNIL

Variants of: B1
Test: protein stability index of a GFP-peptide fusion (GPS, HEK-293T) (PSI 1-6); higher = more stable
Settings: c terminus: a fixed tail appended
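Also: lentivirally expressed fusions sorted by FACS into six bins by GFP to DsRed ratio, PSI derived from sequencing read proportions per bin multiplied by bin number.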

Protein stability index: each site, then its substitutions
D3: M 2.07, E 2.14, G 1.65, I 2.06, C 1.77, H 1.25, A 2.61, F 3.12, L 2.58, K 2.34
L2: F 1.97, R 1.92, G 1.86, Q 1.66, V 1.74, E 2.05, T 2.23, C 2.75, H 1.92, K 2.19, W 2.37, M 2.04, S 1.7, N 2.06, I 2.61, A 1.58, P 2.68, Y 1.74, D 2.15
T1: R 1.66, N 1.61, S 1.82, P 2.37, D 1.92, M 1.77, K 1.52, C 1.92, G 1.46, A 2.49, I 1.36, Y 2.32, V 1.55, W 3.41, E 1.54, L 1.57, F 1.3, Q 1.99, H 1.69

Variants of: B2
Test: as above
Settings: c terminus: a fixed tail appended

Protein stability index of substitutions, site by site:
N19: A 2.81, R 2.3, L 1.55, M 1.97, D 3.03, K 2.06, W 1.4, F 2.02, G 2.56, Y 2.03, I 2.08, V 2.34, S 2.61, T 2.01, P 2.43, C 2.98, E 2.72, H 2.19, Q 2.51
L24: A 3.28, W 1.86, S 2.51, P 2.98, R 3.49, I 2.67, H 3.17, V 2.47, T 3.18, K 3.49, Y 2.51, E 2.84, Q 2.98, C 2.69, F 2.2, D 3.24, N 3.08, G 3.93, M 2.73
I23: W 2.3, V 3.07, C 3.02, L 2.68, Y 3.55, E 3.54, T 2.54, R 3.74, H 3.19, P 2.54, S 2.94, N 3.19, Q 2.75, G 2.96, D 3.75, F 2.69, K 3.52, M 2.91, A 2.89
N22: C 1.71, D 2.04, A 2.41, V 2.51, L 1.7, Q 2.72, S 1.97, I 1.5, H 2.08, E 2.64, M 2.19, Y 1.56, K 2.9, G 2.7, T 2.75, F 1.67, R 2.2, P 2.84
K18: T 2.52, V 2.14, W 1.91, Y 3.3, R 3.38, S 2.1
K21: T 2.65, P 2.79, Q 2.27, A 2.08, H 2.17, R 2.05, N 1.93, G 2.31, D 2.73, Y 1.83, V 2.03, M 1.95, C 2.3, S 2.24, L 2.18, W 1.97, E 2.68, I 2.12, F 1.8
K20: E 2.54, F 1.59, R 2.29, L 1.74, Q 2.25, I 3.38, G 2.18, D 2.31, S 2.64, M 1.58, C 1.89, V 1.99, P 2.72, W 2.07, T 2.96, N 2.02, A 1.94, H 2.21, Y 1.81
